Data reported in US20140004175A1 (COMPUGEN, published 2014).

T1: recombinant human Ang4 carrier-free (R&D Systems, Cat#964-AN-025/CF) (human, UniProt Q9Y264 25-503, limits assumed)
T1 construct: Bought recombinant protein; also called angiopoietin 4
T1 sequence: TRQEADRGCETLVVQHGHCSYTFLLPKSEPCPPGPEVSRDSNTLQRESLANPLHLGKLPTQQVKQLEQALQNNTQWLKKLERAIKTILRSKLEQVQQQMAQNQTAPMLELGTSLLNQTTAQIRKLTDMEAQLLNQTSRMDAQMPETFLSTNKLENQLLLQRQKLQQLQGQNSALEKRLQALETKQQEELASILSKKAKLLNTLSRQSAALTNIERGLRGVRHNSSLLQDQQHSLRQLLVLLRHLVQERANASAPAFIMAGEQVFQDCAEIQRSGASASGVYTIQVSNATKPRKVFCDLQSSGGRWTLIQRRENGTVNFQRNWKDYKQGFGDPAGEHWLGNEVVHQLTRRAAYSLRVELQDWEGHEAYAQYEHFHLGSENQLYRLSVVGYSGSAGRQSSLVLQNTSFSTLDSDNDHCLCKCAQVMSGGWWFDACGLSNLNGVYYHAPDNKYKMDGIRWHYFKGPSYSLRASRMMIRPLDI

T2: recombinant human Ang1 carrier-free (R&D Systems, Cat#923-AN-025/CF) (human, UniProt Q15389 20-498, limits assumed)
T2 construct: Bought recombinant protein; also called angiopoietin 1
T2 sequence: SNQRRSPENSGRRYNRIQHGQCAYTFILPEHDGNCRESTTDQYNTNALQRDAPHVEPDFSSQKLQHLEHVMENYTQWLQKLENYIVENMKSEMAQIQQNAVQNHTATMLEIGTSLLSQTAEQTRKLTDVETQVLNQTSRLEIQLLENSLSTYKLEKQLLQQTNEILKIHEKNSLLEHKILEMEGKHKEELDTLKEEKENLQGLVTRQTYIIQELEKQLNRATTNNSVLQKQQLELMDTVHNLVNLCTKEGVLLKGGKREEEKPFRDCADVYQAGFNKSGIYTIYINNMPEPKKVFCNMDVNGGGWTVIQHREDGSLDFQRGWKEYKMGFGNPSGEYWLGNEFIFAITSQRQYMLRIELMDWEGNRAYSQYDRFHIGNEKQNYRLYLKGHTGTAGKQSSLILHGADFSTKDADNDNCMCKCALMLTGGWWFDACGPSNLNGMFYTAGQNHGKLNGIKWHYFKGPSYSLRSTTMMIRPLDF

T3: recombinant human Ang2 carrier-free (R&D Systems, Cat#623-AN-025/CF) (human, UniProt O15123 19-496)
T3 construct: Bought recombinant protein; also called angiopoietin 2
T3 sequence: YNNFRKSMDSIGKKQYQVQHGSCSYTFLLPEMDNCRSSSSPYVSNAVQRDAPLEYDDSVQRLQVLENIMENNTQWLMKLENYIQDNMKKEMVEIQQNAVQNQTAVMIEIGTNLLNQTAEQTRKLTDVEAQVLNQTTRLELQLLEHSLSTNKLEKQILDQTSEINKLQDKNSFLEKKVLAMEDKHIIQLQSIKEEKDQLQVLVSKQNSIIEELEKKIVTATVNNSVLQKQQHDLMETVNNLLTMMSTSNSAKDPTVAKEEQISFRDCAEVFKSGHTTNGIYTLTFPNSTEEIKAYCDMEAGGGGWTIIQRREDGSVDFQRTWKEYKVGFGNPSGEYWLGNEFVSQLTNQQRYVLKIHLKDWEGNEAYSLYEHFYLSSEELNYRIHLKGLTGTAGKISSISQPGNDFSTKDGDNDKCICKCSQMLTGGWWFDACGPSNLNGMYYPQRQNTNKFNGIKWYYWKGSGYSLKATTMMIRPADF

B1: CGEN-G2 (SEQ ID NO: 11) (peptide)
peptide: Ac-TQQVKQLEQALQNNTQWLKKLERAIKTIL-NH2
B2: CGEN-A11 (SEQ ID NO: 10) (peptide)
peptide: Ac-ETFLSTNKLENQ-NH2
notes: MW 1464.7
B3: CGEN-F12 (SEQ ID NO: 8) (peptide)
peptide: Ac-QHSLRQLLVLLRHLVQERANASA-NH2
notes: MW 2694.3
B4: CGEN-F9 (SEQ ID NO: 7) (peptide)
peptide: Ac-QEELASILSKKAKLLNTLSRQSAALTNIERGLRGVR-NH2
notes: MW 4006.8
B5: CGEN-C6 (SEQ ID NO: 9) (peptide)
peptide: Ac-TDMEAQLLNQTSRMDAQM-NH2
notes: MW 2124.5
B6: CGEN-G6 (SEQ ID NO: 6) (peptide)
peptide: Ac-DLMETVNNLLTMMSTSNSAKD-NH2
notes: MW 2356.8

Legend:
[1] = biological target: T1, recombinant human Ang4 carrier-free …; test: SPR (BIAcore), Ang4 immobilised on CM5, peptide 0.625-0.039 µM, 1:1 Langmuir fit
Protocol: (§1) Peptide-protein binding was analyzed using surface plasmon resonance. […] Solutions containing 10-50 μM of CGEN-H2 [SEQ ID NO: 1], CGEN-H3 [SEQ ID NO: 2], CGEN-A8 [SEQ ID NO: 3], CGEN-H7 [SEQ ID NO: 4], CGEN-G4 [SEQ ID NO: 5], CGEN-G6 [SEQ ID NO: 6], CGEN-F9 [SEQ ID NO: 7], CGEN-F12 [SEQ ID NO: 8], CGEN-C6 [SEQ ID NO: 9], CGEN-A11 [SEQ ID NO: 10], and CGEN-G2 [SEQ ID NO: 11] peptides were injected into the sample chamber of the BIACORE device at a rate of […] and the interaction was monitored using surface plasmon resonance. […]
(§2) Peptides CGEN-G6 [SEQ ID NO: 6], CGEN-F9 [SEQ ID NO: 7], CGEN-F12 [SEQ ID NO: 8], CGEN-A11 [SEQ ID NO: 10], and CGEN-G2 [SEQ ID NO: 11] were capable of binding to immobilized Ang1, Ang2, and Ang4 on the chip and were further analyzed for binding kinetics, as follows. Solutions containing different concentrations of CGEN-G6 [SEQ ID NO: 6], CGEN-F9 [SEQ ID NO: 7], CGEN-F12 [SEQ ID NO: 8], CGEN-A11 [SEQ ID NO: 10], and CGEN-G2 [SEQ ID NO: 11] peptides (as indicated in Table 2) were injected into the sample chamber of the BIACORE device at a rate of […] and the interaction was monitored using surface plasmon resonance.

[2] = biological target: T2, recombinant human Ang1 carrier-free …; test: SPR (BIAcore), Ang1 immobilised on CM5, peptide 0.625-0.039 µM, 1:1 Langmuir fit
Protocol: as §1, §2

[3] = biological target: T3, recombinant human Ang2 carrier-free …; test: SPR (BIAcore), Ang2 immobilised on CM5, peptide 0.625-0.039 µM, 1:1 Langmuir fit
Protocol: as §1, §2

[4] = biological target: T2, recombinant human Ang1 carrier-free …; test: SPR competition (BIAcore), Tie-2/Fc immobilised; Ang1 100-500 nM with peptide 10-50 µM at 1:100
Protocol: Peptide-protein interaction was analyzed using surface plasmon resonance. Analysis of is the interaction between CGEN-G6 [SEQ ID NO: 6], CGEN-F9 [SEQ ID NO: 7], CGEN-C6 [SEQ ID NO: 9], CGEN-A11 [SEQ ID NO: 10], and CGEN-G2 [SEQ ID NO: 11] peptides and recombinant human Tie-2/Fc chimera (carrier-free, R&D Systems, Cat#313-TI, Lot#BKC0707121) was conducted using the BIAcore biosensor (Pharmacia Biosensor, Uppsala, Sweden). The recombinant Tie-2/Fc chimera was immobilized directly to a CM5 sensor chip. Solutions containing 10-50 μM of CGEN-G6 [SEQ ID NO: 6], CGEN-F9 [SEQ ID NO: 7], CGEN-C6 [SEQ ID NO: 9], CGEN-A11 [SEQ ID NO: 10], and CGEN-G2 [SEQ ID NO: 11] were injected into the sample chamber of the BIACORE device at a rate of 20 μl/min and the interaction was monitored using surface plasmon resonance. In addition, solutions containing 100-500 nM of Ang1, Ang2, and Ang4 proteins were injected alone or in combination with 10-50 μM of CGEN-G6 [SEQ ID NO: 6], CGEN-F9 [SEQ ID NO: 7], CGEN-C6 [SEQ ID NO: 9], CGEN-A11 [SEQ ID NO: 10], and CGEN-G2 [SEQ ID NO: 11] peptides at a constant ratio of 1:100 (Ang ligand to peptide) into the sample chamber of the BIACORE device at a rate of 20 μl/min and the interaction was monitored using surface plasmon resonance.
Binding of Ang2 to Tie2 was reduced by 91-100% after incubation with CGEN-G6 [SEQ ID NO: 6] and CGEN-C6 [SEQ ID NO: 9], and to a lesser extent after incubation with CGEN-A11 [SEQ ID NO: 10] and CGEN-F9 [SEQ ID NO: 7] peptides (FIG. 5B). […] Binding of peptides alone to Tie2 was negligible in most cases.

[5] = biological target: T3, recombinant human Ang2 carrier-free …; test: SPR (BIAcore), Ang2 immobilised on CM5, peptide 25-1.56 µM, 1:1 Langmuir fit
Protocol: as §1, §2

[6] = biological target: T2, recombinant human Ang1 carrier-free …; test: SPR (BIAcore), Ang1 immobilised on CM5, peptide 25-1.56 µM, 1:1 Langmuir fit
Protocol: as §1, §2

[7] = biological target: T1, recombinant human Ang4 carrier-free …; test: SPR (BIAcore), Ang4 immobilised on CM5, peptide 25-1.56 µM, 1:1 Langmuir fit
Protocol: as §1, §2

[8] = biological target: T1, recombinant human Ang4 carrier-free …; test: SPR (BIAcore), Ang4 immobilised on CM5 chip, peptide injected
Protocol: (§3) Peptide-protein binding was analyzed using surface plasmon resonance. Analysis of the to interaction between CGEN-H2 [SEQ ID NO: 1], CGEN-H3 [SEQ ID NO: 2], CGEN-A8 [SEQ ID NO: 3], CGEN-H7 [SEQ ID NO: 4], CGEN-G4 [SEQ ID NO: 5], CGEN-G6 [SEQ ID NO: 6], CGEN-F9 [SEQ ID NO: 7], CGEN-F12 [SEQ ID NO: 8], CGEN-C6 [SEQ ID NO: 9], CGEN-A11 [SEQ ID NO: 10], and CGEN-G2 [SEQ ID NO: 11] peptides and recombinant human Ang1 carrier-free (R&D Systems, Cat#923-AN-025/CF, Lot#FHW1507031), human Ang2 carrier-free (R&D Systems, Cat#623-AN-025/CF, Lot#BNO0457121), and human Ang4 carrier-free (R&D Systems, Cat#964-AN-025/CF, Lot#ELM025121) was conducted using the BIAcore biosensor (Pharmacia Biosensor, Uppsala, Sweden). The recombinant Ang1, Ang2, and Ang4 were immobilized directly to a CM5 sensor chip. Solutions containing 10-50 μM of CGEN-H2 [SEQ ID NO: 1], CGEN-H3 [SEQ ID NO: 2], CGEN-A8 [SEQ ID NO: 3], CGEN-H7 [SEQ ID NO: 4], CGEN-G4 [SEQ ID NO: 5], CGEN-G6 [SEQ ID NO: 6], CGEN-F9 [SEQ ID NO: 7], CGEN-F12 [SEQ ID NO: 8], CGEN-C6 [SEQ ID NO: 9], CGEN-A11 [SEQ ID NO: 10], and CGEN-G2 [SEQ ID NO: 11] peptides were injected into the sample chamber of the BIACORE device at a rate of […] and the interaction was monitored using surface plasmon resonance. […] Binding of CGEN-C6 to Ang2 was not sufficiently strong and too noisy for kinetic measurements or determination of affinity constant.

[9] = biological target: T3, recombinant human Ang2 carrier-free …; test: SPR (BIAcore), Ang2 immobilised on CM5, peptide 10-50 µM
Protocol: as §3

[10] = biological target: T3, recombinant human Ang2 carrier-free …; test: SPR (BIAcore), Ang2 immobilised on CM5
Protocol: as §3

[11] = biological target: T1, recombinant human Ang4 carrier-free …; test: SPR (BIAcore), Ang4 immobilised on CM5, peptide 1.25-0.039 µM, 1:1 Langmuir fit
Protocol: as §1, §2

[12] = biological target: T2, recombinant human Ang1 carrier-free …; test: SPR (BIAcore), Ang1 immobilised on CM5, peptide 1.25-0.039 µM, 1:1 Langmuir fit
Protocol: as §1, §2

Binder	Kd [1] [nM]	Kd [2] [nM]	Kd [3] [nM]	reduction of Ang1 binding to Tie2 [4] [%]	Kd [5] [nM]	Kd [6] [nM]	Kd [7] [nM]	further results
B1	25	17.4	56.6	–	–	–	–	–
B2	–	–	–	≤ 34	2360	6740	3690	–
B3	0.243	1.88	5840	–	–	–	–	–
B4	–	–	–	≤ 34	3070	21400	2820	–
B5	–	–	–	≤ 34	–	–	–	binding result [8]: no binding (tested: 10-50 µM); binding result [9]: binds
B6	–	–	–	≤ 34	–	–	–	binding result [10]: binds; Kd [11]: 22.1 nM; Kd [12]: 13.3 nM
